Target: HIV-1 strain IIIB envelope protein gp120/41 on the surface of HIV-1-infected Jurkat cells (HIV-1 strain IIIB) (UniProt P04578)
Test: cell-based or functional assay

CXCR4 protein with an HA epitope tag (from UniProt P61073 1-352) (receptor)
percentage of HIV-1+ cells that were also infected with VSVΔG-CC4: 90 to 95%

— EP1012244B1
